Test results taken from US7238663B2, “Pre-mixes of GLP-1 and basal insulin” (Eli Lilly and Company, priority 2001, dated 2007).
Where “and” joins values, the source holds several entries; their conditions need not be identical. Equal entries are not always repeated.

System: not listed separately
Assay: GLP-1 compound/soluble basal insulin mixtures: clarity and final concentrations by HPLC
Format: physicochemical
Settings: 2.1 mg in 1 ml 0.01 N HCl, pH 11.3 then adjusted to 4.0
Protocol: Exendin-4 (160 μg) was dissolved in 100 μL of commercial Lantus® insulin ([…], 3.6378 mg/mL). […] The solution was stored at 5° C. […] The pH was 4.0 Final concentrations of Exendin-4 and Lantus® were determined by reverse phase HPLC to be 0.9 mg/mL Exendin-4 and 3.5 mg/mL Lantus®. Based on known concentrations of excipients in the commercial formulation of Lantus®, the final concentrations of excipients in the mixture were as follows: 2.7 mg/mL m-cresol, 30 μg/mL zinc, and 17 mg/ml glycerol.
Exendin-4 (290 μg) was dissolved in 100 μL of commercial Lantus® insulin U100, 3.6378 mg/mL). […] The pH of the solution was adjusted to 4.0 with NaOH. Final concentrations of Exendin-4 and Lantus® were determined by reverse phase HPLC to be 1.6 mg/mL Exendin-4 and 3.5 mg/mL Lantus®. […]
Exendin-4 (529 μg) was dissolved in 500 μL of commercial Lantus® insulin (U100, 3.6378 mg/mL). […] Final concentrations of Exendin-4 and Lantus® were calculated to be 1 mg/mL Exendin-4 and 3.5 mg/mL Lantus®. […]
A stock solution of Val^8-Glu^22-GLP-1(7-37)OH was prepared by dissolving 2.1 mg of Val^8-Glu^22-GLP-1(7-37)OH in 1 ml of 0.01 N HCl. […] Final concentrations of Val^8-Glu^22-GLP-1(7-37)OH and Lantus® were determined by reverse phase HPLC to be 0.5 mg/mL Val^8-Glu^22-GLP-1(7-37)OH and 2.4 mg/mL Lantus®. […]
With “Val^8-Glu^22-GLP-1(7-37)OH (HVEGTFTSDVSSYLEEQAAKEFIAWLVKGRG)” the “appearance of stock solution” value was “remained clear”.

Same assay, conditions: 4.8 mg in 1.5 ml Stock solution A (glycerin, meta-cresol, zinc), pH 11 then adjusted to 4.0
In the case of “Val^8-Glu^22-GLP-1(7-37)OH (HVEGTFTSDVSSYLEEQAAKEFIAWLVKGRG)”, the “appearance of stock solution” value is reported as “remained clear”.

Target: T1, human GLP-1 receptor (Homo sapiens, UniProt P43220)
T1 construct: expressed in transfected cells; host or cells: HEK-293 Aurora CRE-BLAM cells
T1 sequence (P43220 24-463): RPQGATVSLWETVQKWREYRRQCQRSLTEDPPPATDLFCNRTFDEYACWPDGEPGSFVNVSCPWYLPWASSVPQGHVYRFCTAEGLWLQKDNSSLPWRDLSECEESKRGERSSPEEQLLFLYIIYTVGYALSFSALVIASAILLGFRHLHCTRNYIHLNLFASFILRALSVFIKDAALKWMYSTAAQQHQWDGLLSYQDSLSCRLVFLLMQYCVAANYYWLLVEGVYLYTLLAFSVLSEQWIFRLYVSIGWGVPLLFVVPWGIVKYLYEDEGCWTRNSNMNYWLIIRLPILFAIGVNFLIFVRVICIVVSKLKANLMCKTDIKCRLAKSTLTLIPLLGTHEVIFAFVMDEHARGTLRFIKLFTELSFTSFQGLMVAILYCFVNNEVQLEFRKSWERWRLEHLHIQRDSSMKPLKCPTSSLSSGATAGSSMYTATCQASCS
Assay: GLP-1 receptor activation (in vitro potency, CRE-BLAM fluorescence assay)
Format: cell-based
Settings: relative in vitro potency from EC50, HEK-293 Aurora CRE-BLAM cells; Val^8-GLP-1(7-37)OH control = 1
Source text: These HEK-293 cells have stably integrated a DNA vector having a cAmp response element (CRE) driving expression of the β-lactamase (BLAM) gene. […] The assay is further described in Zlokarnik, et al., (1998) Science 279:84-88 (See also Example 1).
For “Val^8-Cys^16-Lys^26-Arg^34-GLP-1(7-37)OH”, the “GLP-1 receptor activation relative to Val^8-GLP-1(7-37)OH” value was 2.4 and 1.9.
With Val^8-Cys^16-Lys^26-GLP-1(7-37)OH the “GLP-1 receptor activation relative to Val^8-GLP-1(7-37)OH” value was 4.2.
In the case of “Val^8-Glu^22-Ile^33-GLP-1(7-37)OH (HVEGTFTSDVSSYLEEQAAKEFIAWLIKGRG)”, the “GLP-1 receptor activation relative to Val^8-GLP-1(7-37)OH” value is reported as 4.7 and 3.8 and 3.4.
In the case of “Val^8-Glu^22-Val^25-GLP-1(7-37)OH (HVEGTFTSDVSSYLEEQAVKEFIAWLVKGRG)”, the “GLP-1 receptor activation relative to Val^8-GLP-1(7-37)OH” value is reported as 4.7 and 2.9.
In the case of “Val^8-Glu^22-Val^25-Ile^33-GLP-1(7-37)OH (HVEGTFTSDVSSYLEEQAVKEFIAWLIKGRG)”, the “GLP-1 receptor activation relative to Val^8-GLP-1(7-37)OH” value is reported as 4.9 and 5.8 and 6.7.
With “Val^8-Trp^16-Glu^22-GLP-1(7-37)OH (HVEGTFTSDWSSYLEEQAAKEFIAWLVKGRG)” the “GLP-1 receptor activation relative to Val^8-GLP-1(7-37)OH” value was 4.9 and 4.6.
In the case of “Val^8-Tyr^16-Glu^22-GLP-1(7-37)OH (HVEGTFTSDYSSYLEEQAAKEFIAWLVKGRG)”, the “GLP-1 receptor activation relative to Val^8-GLP-1(7-37)OH” value is reported as 3.6 and 3.8.
With “Val^8-Tyr^18-Glu^22-GLP-1(7-37)OH (HVEGTFTSDVSYYLEEQAAKEFIAWLVKGRG)” the “GLP-1 receptor activation relative to Val^8-GLP-1(7-37)OH” value was 5.1 and 5.9.
With Val^8-Val^16-GLP-1(7-37)OH the “GLP-1 receptor activation relative to Val^8-GLP-1(7-37)OH” value was 1.1.

System: not listed separately
Assay: GLP aggregation assay (turbidity at 350 nm)
Format: physicochemical
Settings: compared to GLP-1(7-37)OH or Val^8-GLP-1(7-37)OH
Protocol: GLP peptides can be analyzed with respect to their potential to aggregate in solution.
In general, peptides in solution are stirred at elevated temperature in a suitable buffer while recording turbidity at 350 nm as a function of time. Time to the onset of aggregation is measured to quantify the potential of a given GLP molecule to aggregate under these stressed conditions.
A GLP-1 compound is first dissolved under alkaline conditions (pH 10.5) for 30 minutes to dissolve any pre-aggregated material. The solution is then adjusted to pH 7.4 and filtered. Specifically, 4 mg of a lyophilized GLP-1 compound is dissolved in 3 ml of 10 mM phosphate/10 mM citrate. The pH is adjusted to 10.0-10.5 and held for 30 minutes. The solution is adjusted with HCl to pH 7.4 and filtered through a suitable filter, for example a Millex GV syringe filter (Millipore Corporation, Bedford, Mass.). This solution is then diluted to a final sample containing 0.3 mg/mL protein in 10 mM citrate, 10 mM phosphate, 150 mM NaCl, and adjusted to pH 7.4 to 7.5. The sample is incubated at 37° C. in a quartz cuvette. Every five minutes the turbidity of the solution is measured at 350 nm on an AVIV Model 14DS UV-VIS spectrophotometer (Lakewood, N.J.). For 30 seconds prior to and during the measurement the solution is stirred using a magnetic stir bar from Stama Cells, Inc. (Atascadero, Calif.). An increase in OD at 350 nm indicates aggregation of the GLP-peptide. The time to aggregation is approximated by the intersection of linear fits to the pre-growth and growth phase according to method of Drake(Arvinte T, Cudd A, and Drake A F.(1993) J. Bio. Chem. 268, 6415-6422).
The cuvette is cleaned between experiments with a caustic soap solution (e.g., Contrad-70).
The results for a number of GLP-1 compounds are reported in Table 8 as the time in hours required for the compound to aggregate.
For “Val^8-Glu^22-GLP-1(7-37)OH (HVEGTFTSDVSSYLEEQAAKEFIAWLVKGRG)”, the “propensity to aggregate in solution” value was “markedly decreased propensity to aggregate”.
With “Val^8-Glu^30-GLP-1(7-37)OH (HVEGTFTSDVSSYLEGQAAKEFIEWLVKGRG)” the “propensity to aggregate in solution” value was “markedly decreased propensity to aggregate”.
With “Val^8-His^37-GLP-1(7-37)OH (HVEGTFTSDVSSYLEGQAAKEFIAWLVKGRH)” the “propensity to aggregate in solution” value was “markedly decreased propensity to aggregate”.
